Reference: patent US10544159B2, “Artemisinin derivatives, methods for their preparation and their use as antimalarial agents” (priority 2012, dated 2020)
Substitutions are numbered along the chain they refer to.

Experiments:
[1] = target: wild-type P450BM3 (Priestia megaterium, UniProt P14779); settings: fatty acid laurate with wild-type P450BM3; read-out: equilibrium dissociation constant; cited from earlier work
[2] = target: P450 variant FL#62 (SEQ ID NO. 8) (Priestia megaterium, UniProt P14779, A181T/A185V/A198V/A291V/A83V/E253G/F206C/F82S/F88A/H237Q/L354V/P143S/R256S/S227R/T176I/V79A); settings: 0.5 mM substrate, 1 μM FL#62, 12 hours
Method: Reaction conditions were: 0.5 mM substrate, 1 μM FL#62 (SEQ ID NO: 8), 2 μM PTDH, 100 μM NADP^+, and 50 mM sodium phosphite in potassium phosphate buffer (50 mM, pH 8.0). After 12 hours, the hydroxylation products formed in these reactions were extracted with dichloromethane and quantified by HPLC and LC-MS.

[3] = test system: P. berghei ANKA; experiment: Antimalarial activity in Plasmodium berghei-infected mice; type: in vivo; set-up: fold higher survival rate than in the absence of treatment: concentration or dose not given beside the values; settings: male C57BL6 mice, after day 7
Method: Briefly, asynchronous P. falciparum (strain 3d7) cultures were maintained at 37° C. at >10% parasitemia in fresh human red blood cells (2% hematocrit) in complete malaria medium. After 4 days (i.e., after 2 replicative parasitic cycles) flasks were synchronized with 5% sorbitol. 72 hours after synchronization, cells were plated and treated with the artemisinin derivatives at various concentrations. After 48 hours of incubation, the cells were lysed and labeled with SybrGreen and fluorescence emission was measured (excitation at 485 nm, emission at 530 nm). […] For the in vivo studies, male C57BL6 mice (6-8 weeks old) were infected with 0.7×10^5 P. berghei ANKA iRBCs and then treated with intraperitoneal injections of the compounds starting from day 3-5 post infection. A set of mice was left untreated and served as negative control. Survival was monitored and parasitemia determined SYBR-green (SYBRGr) staining of infected red blood cells and subsequent flow cytometric analysis.

[4] = type: biochemical; settings: 250 μM artemisinin, rates measured over initial 30 seconds
Method: Measurement of Product Formation Rates and Coupling Efficiency.
Initial product formation rates were measured from 1 mL-scale reactions containing 250 μM artemisinin, 0.1-0.5 μM purified P450, and 200 μM NADPH in potassium phosphate buffer (50 mM, pH 8.0) at room temperature. After 30 seconds, the samples were extracted with dichloromethane and subjected to benzoyl chloride derivatization followed by HPLC analysis as described above. Cofactor oxidation rate in the presence of artemisinin was measured by monitoring NADPH depletion at 340 nm (ε=6.22 mM^−1 cm^−1) using 0.1 μM purified P450, 250 μM artemisinin, and 200 μM NADPH. Coupling efficiency was calculated from the ratio between the initial product formation rate and the initial NADPH oxidation rate. Reported mean and standard deviation values were calculated from experiments performed at least in triplicate.

[5] = KD for artemisinin binding to P450 variants (heme spin-shift titration); settings: binding of artemisinin to 3 μM purified P450, pH 8.0
Method: Determination of KD Values for Artemisinin Binding.
Binding experiments were performed using 3 μM purified P450 in potassium phosphate buffer (50 mM, pH 8.0) by titrating increasing amounts of artemisinin (5 μM to 1 mM) from an ethanol stock solution (50 mM). At each concentration, a difference spectrum from 350 to 500 nm was recorded and binding curves were generated by plotting the change in absorbance at 390 nm and 420 nm corresponding to the high-spin and low-spin state of the enzyme, respectively, against the artemisinin concentration. KD values were calculated using Sigma Plot via non-linear fitting of the experimental binding curves to an equation describing a standard 1:1 binding interaction. Reported mean and standard deviation values were calculated from experiments performed at least in triplicate.

[6] = Total turnovers and regio-/stereoselectivity of P450 variants in artemisinin hydroxylation (analytical scale); type: biochemical; settings: for Product distribution (%) 4: share of 6a-hydroxy-ART (4); for Product distribution (%) 4 / Product distribution (%) 3 / Product distribution (%) 2: 0.5 mM artemisinin, 0.5-1 μM P450, 12 hours; for Product distribution (%) 3: share of 7(R)-hydroxy-ART (3); for Product distribution (%) 2: share of 7(S)-hydroxy-ART (2); for TTN: total turnovers on artemisinin, NADPH cofactor regeneration system, analytical scale
Method: Determination of Total Turnovers and Regio- and Stereoselectivity of the P450 Variants.
After 12 hours, 9-fluorenone was added to the mixtures as internal standard. The hydroxylation products were functionalized with benzoyl chloride followed by HPLC analysis. TTN values were calculated based on the total amount of hydroxylated products in the reactions as quantified based on the calibration curves generated using purified 2-4. The enzyme regio- and stereoselectivity was determined based on the area under the curve of the chromatographic peaks corresponding to the hydroxylation products 2, 3, and 4. Mean and standard deviation values reported for P450 variants in Table 1 were calculated from experiments performed at least in triplicate.

wild-type P450BM3, sequence (P14779 whole entry): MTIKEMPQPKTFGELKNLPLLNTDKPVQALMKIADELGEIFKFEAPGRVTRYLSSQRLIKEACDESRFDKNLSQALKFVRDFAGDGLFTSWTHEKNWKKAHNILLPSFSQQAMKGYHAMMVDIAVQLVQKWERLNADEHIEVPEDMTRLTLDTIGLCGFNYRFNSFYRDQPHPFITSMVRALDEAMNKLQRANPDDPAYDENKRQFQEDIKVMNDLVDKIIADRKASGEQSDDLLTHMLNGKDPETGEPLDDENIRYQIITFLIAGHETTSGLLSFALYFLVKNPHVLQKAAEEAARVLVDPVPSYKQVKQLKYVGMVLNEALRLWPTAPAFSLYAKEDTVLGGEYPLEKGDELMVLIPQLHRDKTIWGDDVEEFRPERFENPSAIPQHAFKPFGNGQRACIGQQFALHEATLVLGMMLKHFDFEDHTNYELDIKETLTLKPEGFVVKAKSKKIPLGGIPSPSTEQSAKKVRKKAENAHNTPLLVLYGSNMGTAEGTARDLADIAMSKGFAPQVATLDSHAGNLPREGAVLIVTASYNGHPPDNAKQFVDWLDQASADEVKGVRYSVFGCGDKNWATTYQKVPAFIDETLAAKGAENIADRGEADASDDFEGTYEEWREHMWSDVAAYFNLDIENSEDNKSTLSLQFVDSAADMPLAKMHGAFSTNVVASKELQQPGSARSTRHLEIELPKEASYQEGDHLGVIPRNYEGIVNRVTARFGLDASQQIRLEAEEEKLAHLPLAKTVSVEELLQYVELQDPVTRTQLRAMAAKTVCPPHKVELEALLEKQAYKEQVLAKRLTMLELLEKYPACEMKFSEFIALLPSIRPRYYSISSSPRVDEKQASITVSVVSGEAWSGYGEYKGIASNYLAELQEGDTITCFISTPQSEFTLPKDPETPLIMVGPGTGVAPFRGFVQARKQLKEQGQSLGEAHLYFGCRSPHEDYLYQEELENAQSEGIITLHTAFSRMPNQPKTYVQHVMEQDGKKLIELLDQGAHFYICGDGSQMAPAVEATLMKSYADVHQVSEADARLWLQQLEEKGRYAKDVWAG
P450 variant FL#62 (SEQ ID NO. 8), sequence (P14779 other isoform, or with tags, fused parts or gaps with the stated changes): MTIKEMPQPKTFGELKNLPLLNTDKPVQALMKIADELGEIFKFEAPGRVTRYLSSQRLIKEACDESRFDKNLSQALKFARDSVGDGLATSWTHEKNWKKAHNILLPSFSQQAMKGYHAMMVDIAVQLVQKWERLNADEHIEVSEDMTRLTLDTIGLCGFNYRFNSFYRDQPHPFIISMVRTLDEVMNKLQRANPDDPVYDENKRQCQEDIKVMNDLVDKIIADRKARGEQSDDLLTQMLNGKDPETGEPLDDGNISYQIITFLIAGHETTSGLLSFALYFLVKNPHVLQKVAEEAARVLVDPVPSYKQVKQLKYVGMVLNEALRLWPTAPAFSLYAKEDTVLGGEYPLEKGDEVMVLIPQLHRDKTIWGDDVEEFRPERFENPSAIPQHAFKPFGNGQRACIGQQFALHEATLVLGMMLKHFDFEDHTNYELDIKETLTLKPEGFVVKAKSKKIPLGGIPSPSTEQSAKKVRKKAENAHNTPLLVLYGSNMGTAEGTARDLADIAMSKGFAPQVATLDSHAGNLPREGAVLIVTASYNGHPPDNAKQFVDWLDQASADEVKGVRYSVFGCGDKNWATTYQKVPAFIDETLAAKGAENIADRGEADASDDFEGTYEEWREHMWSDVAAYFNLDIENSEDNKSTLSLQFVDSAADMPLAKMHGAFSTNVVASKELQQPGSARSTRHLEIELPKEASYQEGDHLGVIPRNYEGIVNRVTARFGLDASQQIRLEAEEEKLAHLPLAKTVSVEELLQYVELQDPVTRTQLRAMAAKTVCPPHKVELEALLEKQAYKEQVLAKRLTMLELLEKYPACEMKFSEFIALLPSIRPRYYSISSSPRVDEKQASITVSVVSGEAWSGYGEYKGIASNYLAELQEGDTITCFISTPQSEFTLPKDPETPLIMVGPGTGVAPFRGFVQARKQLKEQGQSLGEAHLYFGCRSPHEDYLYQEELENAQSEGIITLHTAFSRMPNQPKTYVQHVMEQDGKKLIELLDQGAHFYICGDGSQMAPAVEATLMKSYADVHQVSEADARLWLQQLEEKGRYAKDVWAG

**Q.** With CCCCCCCCCCCC(=O)O [laurate] as the molecule, how does the Kd [1] read?
**A.** 270 µM

**Q.** For COC(=O)CCC(=O)O[C@@H]1O[C@@H]2O[C@@]3(C)CC[C@H]4[C@H](C)CC[C@@H]([C@H]1C)[C@@]24OO3 [artesunate methyl ester], which “catalytic activity relative to that displayed in the presence of artemisinin” value [2] is on record?
**A.** ca. 80%

**Q.** What does the source list for CC1C(=O)OC2OC3(C)CCC4C(C)[C@H](F)CC1C24OO3 (stereo partly drawn) [Compound 5, 7(R)-fluoro-artemisinin]?
**A.** survival rate ([3]; intraperitoneal injections starting from day 3-5 post infection): 80%; fold higher survival rate than in the absence of treatment ([3]; intraperitoneal): 2 fold

B1: II-H10: FL#62-derived P450 variant (SEQ ID NO. 11), 7(R)-hydroxylating (protein)
chain: MTIKEMPQPKTFGELKNLPLLNTDKPVQALMKIADELGEIFKFEAPGRVTRYLSSQRLIKEACDESRFDKNLSQALKFNRDFTGDGLFTSWTHEKNWKKAHNILLPSFSQQAMKGYHAMMVDIAVQLVQKWERLNADEHIEVSEDMTRLTLDTIGLCGFNYRFNSFYRDQPHPFIISMVRTFDETMNKLQRANPDDPVYDENKRQCQEDIKVMNDLVDKIIADRKARGEQSDDLLTQMLNGKDPETGEPLDDGNISYQIITFLIAGHETTSGLLSFALYFLVKNPHVLQKVAEEAARVLVDPVPSYKQVKQLKYVGMVLNEALRLWPTAPAFSLYAKEDTVLGGEYPLEKGDEVMVLIPQLHRDKTIWGDDVEEFRPERFENPSAIPQHAFKPFGNGQRACIGQQFALHEATLVLGMMLKHFDFEDHTNYELDIKETLTLKPEGFVVKAKSKKIPLGGIPSPSTEQSAKKVRKKAENAHNTPLLVLYGSNMGTAEGTARDLADIAMSKGFAPQVATLDSHAGNLPREGAVLIVTASYNGHPPDNAKQFVDWLDQASADEVKGVRYSVFGCGDKNWATTYQKVPAFIDETLAAKGAENIADRGEADASDDFEGTYEEWREHMWSDVAAYFNLDIENSEDNKSTLSLQFVDSAADMPLAKMHGAFSTNVVASKELQQPGSARSTRHLEIELPKEASYQEGDHLGVIPRNYEGIVNRVTARFGLDASQQIRLEAEEEKLAHLPLAKTVSVEELLQYVELQDPVTRTQLRAMAAKTVCPPHKVELEALLEKQAYKEQVLAKRLTMLELLEKYPACEMKFSEFIALLPSIRPRYYSISSSPRVDEKQASITVSVVSGEAWSGYGEYKGIASNYLAELQEGDTITCFISTPQSEFTLPKDPETPLIMVGPGTGVAPFRGFVQARKQLKEQGQSLGEAHLYFGCRSPHEDYLYQEELENAQSEGIITLHTAFSRMPNQPKTYVQHVMEQDGKKLIELLDQGAHFYICGDGSQMAPAVEATLMKSYADVHQVSEADARLWLQQLEEKGRYAKDVWAG
**Q.** For B1, which Product formation rate [4] is on record?
**A.** 32 ± 2 Mole product per mole P450 per minute

**Q.** And the Kd [5]?
**A.** 61 ± 2 µM

**Q.** What about the “Product distribution (%) 4” value [6] of the same molecule?
**A.** 0%

**Q.** What about the “Product distribution (%) 3” value [6] of the same molecule?
**A.** 100%

**Q.** What about the “Product distribution (%) 2” value [6] of the same molecule?
**A.** 0%

**Q.** What about the TTN [6] of the same molecule?
**A.** 270 ± 8

B2: III-B1: FL#62-derived P450 variant (SEQ ID NO. 12) (protein)
chain: B1 chain with N79F, T83A, F88A, F182L, T185V
**Q.** Which results are given for B2?
**A.** Product formation rate [4]: 72 ± 2 Mole product per mole P450 per minute; Kd [5]: 38 ± 2 µM; Product distribution (%) 4 [6]: 0%; Product distribution (%) 3 [6]: 81%; Product distribution (%) 2 [6]: 19%; TTN [6]: 403 ± 17
